B1: TMEM59 peptide 268–280 with increased E272-Y277 distance (EKAALASAIY) (peptide, UniProt Q9BXS4 268-280, looked up)
peptide: Tds-YVPSEKAALASAIYGDL
modifications: reading uncertain
notes: TMEM59 residues 268-280 with extra alanines between E272 and Y277; only the changed stretch is printed; source: synthetic peptide on microarray, ordered from JPT (Germany)
B2: TMEM59 peptide (residues 268–280), wild type (peptide, UniProt Q9BXS4 268-280, looked up)
peptide: Tds-YVPSEKLSIYGDL
modifications: reading uncertain
notes: TMEM59 intracellular domain, residues 268-280; also called active TMEM59 peptide; source: synthetic peptide on microarray, ordered from JPT (Germany)
B3: TMEM59 peptide 268–280 with decreased Y268-E272 distance (YE) (peptide, UniProt Q9BXS4 268-280, looked up)
peptide: Tds-YEKLSIYGDL
modifications: reading uncertain
notes: TMEM59 residues 268-280 with the native residues between Y268 and E272 deleted; only the changed stretch is printed; also called YE (Y268-E272); source: synthetic peptide on microarray, ordered from JPT (Germany)
B4: TMEM59 peptide 268–280 with increased Y268-E272 distance (YVAPAASE) (peptide, UniProt Q9BXS4 268-280, looked up)
peptide: Tds-YVAPAASEKLSIYGDL
modifications: reading uncertain
notes: TMEM59 residues 268-280 with extra alanines between Y268 and E272; only the changed stretch is printed; also called YVAPAASE (Y268-E272); source: synthetic peptide on microarray, ordered from JPT (Germany)
B5: TMEM59 peptide 268–280 with decreased E272-Y277 distance (ELY) (peptide, UniProt Q9BXS4 268-280, looked up)
peptide: Tds-YVPSELYGDL
modifications: reading uncertain
notes: TMEM59 residues 268-280 with native residues between E272 and Y277 deleted so that one (L) is left; only the changed stretch is printed; source: synthetic peptide on microarray, ordered from JPT (Germany)

Where no end group is shown, it is not given here. Tds = not defined here

The target in this test is T1, GST-HA-ATG16L1(231–607) (human, UniProt Q676U5 231-607).
T1 construct: ATG16L1, human, residues 231-607 (results and legend); the methods name the construct 230-607; includes the WD40 domain (WDD, 320-607); Limits differ between results (231-607) and methods (230-607); also called GST-HA-ATG16L1-230-607; recombinant protein that includes the WDD; source: HEK-293T, retrovirally transduced, purified (GSH-agarose, eluted with reduced GSH, concentrated)
T1 sequence (Q676U5 231-607): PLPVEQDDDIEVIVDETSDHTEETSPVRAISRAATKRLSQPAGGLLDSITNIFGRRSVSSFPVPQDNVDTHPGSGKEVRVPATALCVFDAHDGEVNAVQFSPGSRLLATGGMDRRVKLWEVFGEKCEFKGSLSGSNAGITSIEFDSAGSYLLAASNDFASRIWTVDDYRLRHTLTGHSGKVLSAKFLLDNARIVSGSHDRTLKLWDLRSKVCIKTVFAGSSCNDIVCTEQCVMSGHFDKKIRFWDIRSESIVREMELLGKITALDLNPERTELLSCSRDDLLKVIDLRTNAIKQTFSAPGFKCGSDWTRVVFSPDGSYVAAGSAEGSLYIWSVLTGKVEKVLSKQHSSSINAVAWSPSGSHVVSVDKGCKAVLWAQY
Put plainly: peptide or protein array; peptides immobilised on glass slides through the N-terminal end with a Tds spacer (JPT); GST-HA-ATG16L1 fragment in PBS/0,05% Tween-20 with 5% BSA, 20-800 nM, 2 h at RT plus overnight at 4 °C; detected with anti-HA and anti-GST and Cy5-labelled secondary antibodies; binding normalised to the wild-type peptide. Conditions: both partners purified.
With B1, the binding result was “binds”. In the case of B2, the binding result is listed as “binds”. Turning to B3, the binding result is reported as “binds”. On to B4, for which the binding result was “binds”. With B5, the binding result is “binds”.
